# Target: T1, Cra (Escherichia coli O157:H7 (EHEC) 86-24) (UniProt P0ACP3)
# T1 sequence: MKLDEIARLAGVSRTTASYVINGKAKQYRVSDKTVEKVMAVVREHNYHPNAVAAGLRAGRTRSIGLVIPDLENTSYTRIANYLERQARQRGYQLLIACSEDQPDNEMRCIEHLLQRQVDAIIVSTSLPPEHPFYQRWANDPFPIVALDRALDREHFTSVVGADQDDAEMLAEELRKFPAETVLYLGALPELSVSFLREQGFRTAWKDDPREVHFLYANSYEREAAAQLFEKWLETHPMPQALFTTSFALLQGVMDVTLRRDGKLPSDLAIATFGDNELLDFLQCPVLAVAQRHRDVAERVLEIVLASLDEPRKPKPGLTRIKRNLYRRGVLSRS
# Assay: competition
sequence,measurement,value
TCGGATCCCATGTGCTGCGACTGCGTTCGCTTACCCCAATCACTTACTTATGTAAGCTCCTGGGGATTCACTCGCTTGCCGCCTTCCTGTAACTCGAATTAAGTAGAGTATAGTGAAACGGTTCAGCTTGGTTTTTATTCTGTTTTATTTGTTTATGCAATGAGATCTATCTTATAAAGAGAAACGCTTAACTAAATGGAAATGCGAATTCGA (double strand) [ler probe aa (-450 to -255)],binding,binds

# — paper PMC3482499
